Reference: PMC7857395 (2020)

B1: S2E12 Fab fragment (Fab, V domains shown)
VH: not shown
VL: DIVLTQTPGTLSLSPGERATLSCRASQSVSSSYLAWYQQKPGQAPRLLIYGASSRATGIPDRFSGSGSGTDFTLTISRLEPEDFAVYYCQQYVGLTGWTFGQGTKVEIK
B2: S2M11 Fab fragment (Fab, V domains shown)
VH: EVQLVQSGAEVKKPGASVKVSCKASGYTFTGYYMHWVRQAPGQGLEWMGWINPISSGTSYAQTFQGRVTMTSDTSITTAYMELSRLRSDDTAVYYCARAAPFYDFWSGYSYFDYWGQGTLVTVSS
VL: not shown

Biological target: SARS-CoV-2 S receptor-binding domain (RBD) (SARS-CoV-2, UniProt P0DTC2)
Experiment: SPR

| Binder | Kd |
| --- | --- |
| B1 | 1.6 nM |
| B2 | 66 nM |
